In this experiment the target is Human HER2 expressed on tumour cells (human, UniProt P04626 23-1255). Kind of experiment: cell-based or functional assay.

B1: DARPin #28 (designed binder)
chain: MRGSHHHHHHGSDLGVKLLWAAARGQDDEVRILLAAGADVNAKDFQGITPLHIAATNGHLEIVEVLLKAGADVNAKDITGETPLHHAADSGHLEIVEVLLKAGADVNAQDKAGVTPADLAAAWGHEDIAEVLQKLGGGGSGGGGSRSDLGAKLLVAATSGQDDEVRILLAAGADVNAKDRIGFTPLHRAAFVGHLEIVEVLLKAGADVNAQDDFGHTPADLAASLGHEDIAEVLQKLN
Consider B1, for which the “% activity vs. DARPin # 41, BT474 cell proliferation” value came to 82.5% and the “IC50 [nM], inhibition of BT474 cell proliferation (BrdU)” value (“IC50 [nM], inhibition” below) worked out at 5.15 nM.

B2: DARPin #38 (designed binder)
chain: MRGSHHHHHHGSDLGHKLLEAAVAGQDDEVRILLAAGADVNAKDWYGKTPLHFAAGLGHLEIVEVLLKAGADVNAKDEDGQTPLHLAAAYGHLEIVEVLLKAGADVNAQDNDGFTPADLAADSGHEDIAEVLQKLGGGGSGGGGSRSDLGIKLLQAANLGQDDEVRILLATGADVNAKDSIGQTPLHWAARRGHLEIVEVLLKAGADVNAKDEYGVTPLHLAASLGHLEIVEVLLKAGADVNAQDESGETPADLAALHGHEDIAEVLQKLN
Regarding B2, the “% activity vs. DARPin # 41, BT474 cell proliferation” value worked out at 99.3% and the “IC50 [nM], inhibition” value came to 3.3 nM.

B3: DARPin #33 (designed binder)
chain: MRGSHHHHHHGSDLGIKLLFAASRGQDDEVRILLAAGADVNAKDFEGITPLHAAARSGHLEIVEVLLKAGADVNAKDVEGWTPLHYAASYGHLEIVEVLLKAGADVNAQDNHGATPADLAAQWGHEDIAEVLQKLGGGGSGGGGSRSDLGAKLLVAATSGQDDEVRILLAAGADVNAKDRIGFTPLHRAAFVGHLEIVEVLLKAGADVNAQDDFGHTPADLAASLGHEDIAEVLQKLN
For B3, the “% activity vs. DARPin # 41, BT474 cell proliferation” value was found to be 65.3% and the “IC50 [nM], inhibition” value was 4.47 nM.

B4: DARPin #32 (designed binder)
chain: MRGSHHHHHHGSDLGIKLLFAASRGQDDEVRILLAAGADVNAKDFEGITPLHAAARSGHLEIVEVLLKAGADVNAKDVEGWTPLHYAASYGHLEIVEVLLKAGADVNAQDNHGATPADLAAQWGHEDIAEVLQKLGGGGSGGGGSRSDLGIKLLQAANLGQDDEVRILLATGADVNAKDSIGQTPLHWAARRGHLEIVEVLLKAGADVNAKDEYGVTPLHLAASLGHLEIVEVLLKAGADVNAQDESGETPADLAALHGHEDIAEVLQKLN
Turning to B4, the “% activity vs. DARPin # 41, BT474 cell proliferation” value turned out to be 48% and the “IC50 [nM], inhibition” value was found to be 3.29 nM.

B5: DARPin #34 (designed binder)
chain: MRGSHHHHHHGSDLGIKLLFAASRGQDDEVRILLAAGADVNAKDFEGITPLHAAARSGHLEIVEVLLKAGADVNAKDVEGWTPLHYAASYGHLEIVEVLLKAGADVNAQDNHGATPADLAAQWGHEDIAEVLQKLGGGGSGGGGSRSDLGKKLLEAARAGQDDEVRILMANGADVNAKDEYGLTPLYLATAHGHLEIVEVLLKNGADVNAVDAIGFTPLHLAAFIGHLEIAEVLLKHGADVNAQDKFGKTAFDISIGNGNEDLAEILQKLN
Regarding B5, the “% activity vs. DARPin # 41, BT474 cell proliferation” value was found to be 95.1% and the “IC50 [nM], inhibition” value came to 3.88 nM.

B6: DARPin #23 (designed binder)
chain: MRGSHHHHHHGSDLGDKLLQSDLGIKLLFAAAKSQDDEVRILLAAGADVNAKDFQSVTPLHIAAQSGHLEIVEVLLKAGADVNAKDVTGDTPLHLAAQHGHLEIVEVLLKAGADVNAQDERGWTPADLAADWGHEDIAEVLQKLGGGGSGGGGSRSDLGAKLLVAATSGQDDEVRILLAAGADVNAKDRIGFTPLHRAAFVGHLEIVEVLLKAGADVNAQDDFGHTPADLAASLGHEDIAEVLQKLN
B6: the “% activity vs. DARPin # 41, BT474 cell proliferation” value came out at 97.3% and the “IC50 [nM], inhibition” value worked out at 2.99 nM.

B7: DARPin #36 (designed binder)
chain: MRGSHHHHHHGSDLGIKLLFAAAKGQDDEVRILLAAGADVNAKDFEGYTPLHVAAYDGHLEIVEVLLKAGADVNAKDSQGRTPLHEAAYSGHLEIVEVLLKAGADVNAQDDAGETPADLAAAWGHEDIAEVLQKLGGGGSGGGGSRSDLGAKLLVAATSGQDDEVRILLAAGADVNAKDRIGFTPLHRAAFVGHLEIVEVLLKAGADVNAQDDFGHTPADLAASLGHEDIAEVLQKLN
For B7, the “% activity vs. DARPin # 41, BT474 cell proliferation” value came to 68.8% and the “IC50 [nM], inhibition” value was determined as 2.56 nM.

The record behind these values is patent US20150299265A1 (Molecular Partners, published 2015).
